Source: patent US20210130420A1, “RECOMBINANT BINDING PROTEINS TARGETING HER2 AND SERUM ALBUMIN, AND THEIR USES” (Molecular Partners AG, priority 2016, published 2021)
Where “and” joins values, the source holds several entries; their conditions need not be identical. Identical values can stand only once.

Experiments:
[1] = molecular target: human HER2 and human serum albumin (Homo sapiens, UniProt P02768+P04626); assay: Surface plasmon resonance simultaneous binding
BT474 cells = assay: BT474 cell proliferation, BrdU-labeling; type: cell-based, human; conditions: cellular assays of Example 6 and screening
Experimental: Protein #21-His and Protein #23-His, were expressed and purified as described in Example 1. Effects of the recombinant binding proteins on BT474 cell proliferation were determined by measuring DNA synthesis using BrdU-labeling (BrdU, Cell Proliferation ELISA, Roche). Briefly, 10000 BT474 cells were seeded per well in a 96 well plate in 100 ul complete medium and incubated for 24 hours. Recombinant binding proteins or controls were added for an additional 72 hours. BrdU for cell labeling was added for the last 24 hours. Labeled (proliferating) cells were detected according to the manufactures protocol. The data were analyzed using the GraphPad prism software, plotting log [c] on the x-axis against OD450-602 nm on the y-axis. Data were fitted using a non-linear regression fit (log(antagonist) vs. response—Variable slope (four parameters)) deriving IC50 values.
Protein #21 and Protein #21-His were expressed and purified as described in Example 1. Standard BrdU cell proliferation assays were performed, well-known to the person skilled in the art. Briefly, effects on cell proliferation of Protein #21-His, other compounds, or Protein #21-His in combination with other compounds, were determined by measuring DNA synthesis using BrdU-labeling (BrdU, Cell Proliferation ELISA, Roche). Briefly, 10000 cells were seeded per well in a 96 well plate in 100 μl complete medium and incubated for 24 hours. Protein #21-His and/or compounds were added for an additional 72 hours. BrdU for cell labeling was added for the last 24 hours. Labeled (proliferating) cells were detected according to the manufactures protocol. The data were analyzed using the Graph Pad prism software (log [c] vs. OD450-602 nm plot). Data were fitted using a non-linear regression fit (log(antagonist) vs. response—variable slope (four parameters)).

HER1/EGFR = assay: Phosphorylation state ELISA, BT474 cells; type: cell-based, human; conditions: 100 nM, 18 hours
[2] = Pharmacokinetic analysis in cynomolgus monkey; type: in vivo
Experimental: The measurements shown in this example are the result of a half-life engineering effort as described in Example 11. Protein #21-His, Protein #23-His, and Protein #24-His were expressed and purified as described in Example 1. The pharmacokinetic properties of the proteins were assessed in cynomolgus monkey. Proteins were administered via intravenous infusion for 30 min at a target dose level of between 1 mg/kg to cynomolgus monkeys. Blood samples were collected pre-dose and again at selected time points, for example 5 min, 10 min, 0.5 hours, 1 hour, 2 hours, 4 hours, 8 hours, 12 hours, 24 hours, 48 hours, 72 hours, 96 hours, 120 hours, 144 hours, 168 hours, 192 hours, 216 hours, and 240 hours post-end of infusion (i.e. post-injection). The blood samples were allowed to stand at room temperature and were centrifuged to generate serum, followed by storage at −80° C. pending analyses. Pharmacokinetic parameters were determined using procedures well known to the person skilled in the art. Serum concentrations of proteins were determined by sandwich ELISA using a rabbit monoclonal anti-designed ankyrin repeat domain antibody as capture reagent and murine monoclonal anti-designed ankyrin repeat domain antibody as detection reagent, and using a standard curve. Pharmacokinetic parameters were determined using standard software such as Phoenix WinNonLin (Certara, Princeton, USA) or Graph Pad Prism (GraphPad Software, La Jolla, USA) and standard analyses such as non-compartmental analyses. […] Target mediated clearance is well-known to the person skilled in the art and is known from e.g. antibodies targeting HER2.
Similarly, Protein #21-His was expressed and purified as described in Example 1. The pharmacokinetic properties of the proteins were assessed in cynomolgus monkey as described above at 1 mg/kg, 5 mg/kg and 10 mg/kg.
Similar results are observed when testing Protein #21 (expressed and purified as described in Example 1). The pharmacokinetic properties of the proteins are assessed in cynomolgus monkey as described above at 1 mg/kg, 10 mg/kg and 100 mg/kg. Pharmacokinetic parameters are evaluated as described above.
(§1) For the studies in this example Protein #21-His, Protein #24-His, Protein #28-His, Protein #29-His, and Protein #30-His were prepared according to Example 1. Protein #28-His was additionally PEGylated using a 40 kDa PEG moiety (NOF Sunbright GL2-400MA) by maleimid coupling of the PEG-moiety onto the free C-terminal cysteine of Protein #28-His, followed by purification to homogeneity using standard purification methods, procedures well known to the person skilled in the art. Pharmacokinetic analyses in mouse or cynomolgus monkey were performed as described in Examples 8 and 9.

human serum albumin = human serum albumin (Homo sapiens, UniProt P02768); assay: Size exclusion chromatography coupled to static light scattering with human serum albumin; type: binding; conditions: 30 μM Protein #21, 60 μM human serum albumin, 1:2 mixture in PBS
Experimental: Protein #21 was expressed and purified as described in Example 1. Size exclusion chromatography coupled to static light scattering (Superdex 200 10/300GL (GE Healthcare), Agilent 1200 (Life Technologies), Wyatt Optilab Trex (RI) and MiniDawnTreos (MALS)) was performed using 30 μM Protein #21, 60 μM human serum albumin (CSL Behring 20% solution was used to purify the monomeric fraction of human serum albumin by size exclusion chromatography on a Superdex 200 26/60 column (GE Healthcare)), or a 1:2 mixture of the two, in PBS.

[3] = molecular target: extracellular domains of EGFR (Homo sapiens, UniProt P00533); assay: Surface plasmon resonance interaction with EGFR; type: binding
[4] = Pharmacokinetic comparison of Protein #21 with Protein #33; type: in vivo; conditions: variant lacking the C-terminal serum albumin binding domain
Description: Many options are known in the art for pharmacokinetic engineering including PEGylation, polypeptide extension, Fc-fusion, serum albumin-fusion, and binding to serum albumin, amongst others (Kontermann, R (Ed.) “Therapeutic proteins: strategies to modulate their plasma half-lives”, Wiley-VCH Verlag GmbH, 2012, ISBN 978-3-527-32849-9). Starting from e.g. the combination of designed ankyrin repeat domains with binding specificity for HER2 comprising SEQ ID NOs: 16 and 17, there are hundreds of potential drug candidate variants (choice of pharmacokinetic modification engineering, choice of polypeptide linker (e.g. SEQ ID NOs: 2 to 9 amongst many others), amongst other aspects). […] Results of the effect of the choice of the polypeptide linker are shown e.g. in Example 10.
as §1

interaction with extracellular domains of EGFR [3]: does not interact
B1: Protein #21: SEQ ID NO: 21; HER2 binding domains (SEQ ID NOs: 16, 17) flanked by two serum albumin binding domains (SEQ ID NO: 14), SEQ ID NO: 9 linkers (protein)
chain: GSDLGKKLLEAARAGQDDEVRELLKAGADVNAKDYFSHTPLHLAARNGHLKIVEVLLKAGADVNAKDFAGKTPLHLAANEGHLEIVEVLLKAGADVNAQDIFGKTPADIAADAGHEDIAEVLQKAAGSPTPTPTTPTPTPTTPTPTPTGSDLGIKLLFAAAKGQDDEVRELLKAGADVNAKDFQGVTPLHIAAQSGHLEIVEVLLKAGADVNAKDVTGDTPLHLAAQHGHLEIVEVLLKAGADVNAQDERGWTPADLAADWGHEDIAEVLQKAAGSPTPTPTTPTPTPTTPTPTPTGSDLGKKLLEAARAGQDDEVRELLKAGADVNAKDEYGLTPLYLATAHGHLEIVEVLLKAGADVNAVDAIGFTPLHLAAFIGHLEIAEVLLKAGADVNAQDKFGKTPADIAAGAGNEDIAEVLQKAAGSPTPTPTTPTPTPTTPTPTPTGSDLGKKLLEAARAGQDDEVRELLKAGADVNAKDYFSHTPLHLAARNGHLKIVEVLLKAGADVNAKDFAGKTPLHLAANEGHLEIVEVLLKAGADVNAQDIFGKTPADIAADAGHEDIAEVLQKAA
modifications: Protein comprising four designed ankyrin repeat domains
simultaneous binding of human HER2 and human serum albumin [1]: can bind human HER2 and human serum albumin simultaneously | cellular potency (BT474 cells): high cellular potency | HER1/EGFR Pan-Phospho-Tyrosine (HER1/EGFR): 0.40 fold change to PBS | dose dependence of the terminal half-life ([2]; 1 mg/kg, 10 mg/kg and 100 mg/kg): dose dependent increase | pharmacokinetic properties compared to PEGylated Protein #28 ([2]; 5 mg/kg doses): markedly improved pharmacokinetic properties | terminal half-life ([2]; 100 mg/kg): 109.5 h and 130.6 h | simultaneous binding of two serum albumin molecules (human serum albumin): can bind two serum albumin molecules simultaneously | pharmacokinetic properties compared to Protein #33 [4]: markedly improved pharmacokinetic properties, in particular a longer terminal half-life
